Results on two molecules are retold here after CN111944047A (CHONGQING PREC BIOTECH CO LTD, dated 2020).

This experiment deals with T1, hBCMA-hFc (human, UniProt Q02223 1-54, limits assumed).
T1 construct: not shown: human Fc (hFc)
T1 sequence (looked up): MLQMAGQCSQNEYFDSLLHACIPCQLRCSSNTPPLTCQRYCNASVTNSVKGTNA
Put plainly: Fortebio Octet K2 / Nicoya OpenSPR, hBCMA-hFc loaded on sensor, scFv in solution. In general terms: Biolayer interferometry detects binding as a change in optical thickness at a sensor tip.

B1: ScFv1 (scFv)
scFv: DIVMTQSPDSLAVSLGERATINCRASESVSIHGTHLMHWYQQLPGTPPKLLIYAASNLESGVPDRFSGSGSGTDFTLKISPVEAEDVGVYYCQQSIEDPRTFGGGTKLEIKGSTSGSGKPGSGEGSTKGQVQLVQSGPALVKPGASVKVSCKASGYTFTDYYMNWVRQAHGQGLEWMGVINPYNGGTDYNQKFKGRVTMTRDTSISTAYMELSSLRSEDTAVYYCARSVYDYPFDYWGQGTLVTVSS
notes: The scFv is VL-Linker-VH, expressed in CHO cells and purified; Any tag on the purified protein is not described for ScFv1; also called 靶向BCMA人源化单克隆抗体; 抗BCMA的人源化单链抗体
In general, Kd refers to the constant that tells how readily two partners part at equilibrium. Low readings indicate tighter binding, high ones weaker binding. By koff is commonly meant the first-order rate constant of dissociation. One may read the kon as the rate constant with which the complex forms. Read a low kon as slower complex formation. With B1, the affinity, expressed as Kd, was 4.65 nM; the koff amounted to 0.000438 s⁻¹; the on-rate constant (kon) stood at 94200 M⁻¹ s⁻¹.

B2: ScFv2 (scFv)
scFv: DIVLTQSPASLAVSLGQRATITCRASESVSIHGTHLMHWYQQKPGQPPVLVIYAASNLESGVPARFSGSGSGTDFTLKIHPVEAEDVGVYYCQQSIEDPRTFGGGTKLEIKGSTSGSGKPGSGEGSTKGQVQLVQSGPEVKKPGASVKVSCKASGYTFTDYYMNWVRQMHGKGLEWMGVINPYNGGTDYNQKFKGRVTITADKSTSTAYMELSSLRSEDTAVYYCARSVYDYPFDYWGQGTLVTVSS
notes: also called 人源化ScFv2; 靶向BCMA人源化单克隆抗体
On to B2, for which the Kd came out at 16.4 nM, the off-rate constant (koff) was found to be 0.00437 s⁻¹ and the kon was determined as 266000 M⁻¹ s⁻¹.
